The target in the assay is ONE-GC fragment aa 836-1110 (UniProt P51839 836-1110). Put plainly: SPR.

Where “and” joins values, the source holds several entries; their conditions need not be identical. Equal entries are not always repeated.

Chain of ONE-GC fragment aa 836-1110 (P51839 836-1110): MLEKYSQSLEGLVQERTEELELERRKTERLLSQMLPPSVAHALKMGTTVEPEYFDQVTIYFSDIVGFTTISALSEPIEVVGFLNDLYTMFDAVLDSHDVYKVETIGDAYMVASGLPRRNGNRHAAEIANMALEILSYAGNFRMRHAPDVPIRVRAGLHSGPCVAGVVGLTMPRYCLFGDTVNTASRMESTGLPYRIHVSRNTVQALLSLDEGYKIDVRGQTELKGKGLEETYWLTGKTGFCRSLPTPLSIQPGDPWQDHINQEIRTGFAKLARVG

B1: GCAP1 (guanylate cyclase activating protein 1), purified recombinant (natural protein, UniProt P46065 1-205, looked up)
chain: MGNIMDGKSVEELSSTECHQWYKKFMTECPSGQLTLYEFRQFFGLKNLSPWASQYVEQMFETFDFNKDGYIDFMEYVAALSLVLKGKVEQKLRWYFKLYDVDGNGCIDRDELLTIIRAIRAINPCSDSTMTAEEFTDTVFSKIDVNGDGELSLEEFMEGVQKDQMLLDTLTRSLDLTRIVRRLQNGEQDEEGASGRETEAAEADG
Regarding B1, the EC50 was found to be 500 nM; the Kd was 650 nM and 670 nM.

Source of the values: article PMC2936275 (Biochemistry, 2010).
